In article PMC6711705, “Tailored tetravalent antibodies potently and specifically activate Wnt/Frizzled pathways in cells, organoids and mice” (eLife, 2019):
Where two headings read alike, the source gives them in different places.

Assays:
[1] = target: T1, Fc-tagged FZD4 CRD (Homo sapiens, UniProt Q9ULV1)
[2] = target: T2, Fc-tagged FZD7 CRD (Homo sapiens, UniProt O75084)
[3] = target: T2, Fc-tagged FZD7 CRD; experiment: SPR; soluble F^P Fab or IgG injected over FZD-Fc immobilised on a GLC sensor by amine coupling; PBS, 0.05% Tween20, 0.5% BSA; 25 °C; 1:1 Langmuir model, global fit; details: both partners purified
[4] = target: T3, Fc-tagged FZD1 CRD (Homo sapiens, UniProt Q9UP38); experiment: as above; details: both partners purified
T3 construct: Frizzled-1, human, cysteine rich domain (CRD); also called FZD1-Fc; source: bought: R and D Systems

[5] = target: T4, Fc-tagged FZD2 CRD (Homo sapiens, UniProt Q14332); experiment: as above; details: both partners purified
T4 construct: Frizzled-2, human, cysteine rich domain (CRD); also called FZD2-Fc; source: bought: R and D Systems

[6] = target: T1, Fc-tagged FZD4 CRD; experiment: as above; details: both partners purified
[7] = target: T4, Fc-tagged FZD2 CRD

B1: FLAg 4+4 (anti-FZD4 paratope) (antibody, V domains shown)
VH: EVQLVESGGGLVQPGGSLRLSCAASGFNSSFYFMHWVRQAPGKGLEWVATVYPYLDYTYYADSVKGRFTISADTSKNTAYLQMNSLRAEDTAVYYCARAFPGSYHPMDYWGQGTLVTVSS
VL: DIQMTQSPSSLSASVGDRVTITCRASQSVSSAVAWYQQKPGKAPKLLIYSASSLYSGVPSRFSGSRSGTDFTLTISSLQPEDFATYYCQQSSYSLITFGQGTKVEIK
Q: Does B1 bind [1]?
A: binds

B2: FLAg 7+7 (anti-FZD7 paratope) (antibody, V domains shown)
VH: EVQLVESGGGLVQPGGSLRLSCAASGFNISSSSMHWVRQAPGKGLEWVASIYSYYGSTYYADSVKGRFTISADTSKNTAYLQMNSLRAEDTAVYYCARWYGMDYWGQGTLVTVSS
VL: DIQMTQSPSSLSASVGDRVTITCRASQSVSSAVAWYQQKPGKAPKLLIYSASSLYSGVPSRFSGSRSGTDFTLTISSLQPEDFATYYCQQPGSWYFPPITFGQGTKVEIK
Q: Does B2 bind [2]?
A: binds

B3: F^P Fab (Fab, V domains shown)
VH: EVQLVESGGGLVQPGGSLRLSCAASGFNIGSSSIHWVRQAPGKGLEWVASIYSAFASTSYADSVKGRFTISADTSKNTAYLQMNSLRAEDTAVYYCARYHFPFGFALDYWGQGTLVTVSS
VL: DIQMTQSPSSLSASVGDRVTITCRASQSVSSAVAWYQQKPGKAPKLLIYSASSLYSGVPSRFSGSRSGTDFTLTISSLQPEDFATYYCQQGVYLFTFGQGTKVEIK
notes: VH as the F^P VH of m1; constant part of the Fab heavy chain; the Fab construct is not described; VL as the F^P VL of m1; constant part of the Fab light chain; Parent paratope of the N-terminal diabody of m1; also called pan-FZD Ab (F^P); source: Expi293F, transient transfection, purified (rProtein A Sepharose)
Q: Does B3 bind [3]?
A: binds

Q: Does B3 bind [4]?
A: binds

Q: Does B3 bind [5]?
A: binds

Q: Does B3 bind [6]?
A: binds

B4: FLAg 2+2 (anti-FZD2 paratope) (antibody, V domains shown)
VH: EVQLVESGGGLVQPGGSLRLSCAASGFNIYYSSIHWVRQAPGKGLEWVASIYPYYGYTYYADSVKGRFTISADTSKNTAYLQMNSLRAEDTAVYYCARYYHYGLDYWGQGTLVTVSS
VL: DIQMTQSPSSLSASVGDRVTITCRASQSVSSAVAWYQQKPGKAPKLLIYSASSLYSGVPSRFSGSRSGTDFTLTISSLQPEDFATYYCQQSYWHSYLITFGQGTKVEIK
Q: Does B4 bind [7]?
A: binds
